Biological target: T1, CasEnd-36 (synthetic construct)
T1 chain: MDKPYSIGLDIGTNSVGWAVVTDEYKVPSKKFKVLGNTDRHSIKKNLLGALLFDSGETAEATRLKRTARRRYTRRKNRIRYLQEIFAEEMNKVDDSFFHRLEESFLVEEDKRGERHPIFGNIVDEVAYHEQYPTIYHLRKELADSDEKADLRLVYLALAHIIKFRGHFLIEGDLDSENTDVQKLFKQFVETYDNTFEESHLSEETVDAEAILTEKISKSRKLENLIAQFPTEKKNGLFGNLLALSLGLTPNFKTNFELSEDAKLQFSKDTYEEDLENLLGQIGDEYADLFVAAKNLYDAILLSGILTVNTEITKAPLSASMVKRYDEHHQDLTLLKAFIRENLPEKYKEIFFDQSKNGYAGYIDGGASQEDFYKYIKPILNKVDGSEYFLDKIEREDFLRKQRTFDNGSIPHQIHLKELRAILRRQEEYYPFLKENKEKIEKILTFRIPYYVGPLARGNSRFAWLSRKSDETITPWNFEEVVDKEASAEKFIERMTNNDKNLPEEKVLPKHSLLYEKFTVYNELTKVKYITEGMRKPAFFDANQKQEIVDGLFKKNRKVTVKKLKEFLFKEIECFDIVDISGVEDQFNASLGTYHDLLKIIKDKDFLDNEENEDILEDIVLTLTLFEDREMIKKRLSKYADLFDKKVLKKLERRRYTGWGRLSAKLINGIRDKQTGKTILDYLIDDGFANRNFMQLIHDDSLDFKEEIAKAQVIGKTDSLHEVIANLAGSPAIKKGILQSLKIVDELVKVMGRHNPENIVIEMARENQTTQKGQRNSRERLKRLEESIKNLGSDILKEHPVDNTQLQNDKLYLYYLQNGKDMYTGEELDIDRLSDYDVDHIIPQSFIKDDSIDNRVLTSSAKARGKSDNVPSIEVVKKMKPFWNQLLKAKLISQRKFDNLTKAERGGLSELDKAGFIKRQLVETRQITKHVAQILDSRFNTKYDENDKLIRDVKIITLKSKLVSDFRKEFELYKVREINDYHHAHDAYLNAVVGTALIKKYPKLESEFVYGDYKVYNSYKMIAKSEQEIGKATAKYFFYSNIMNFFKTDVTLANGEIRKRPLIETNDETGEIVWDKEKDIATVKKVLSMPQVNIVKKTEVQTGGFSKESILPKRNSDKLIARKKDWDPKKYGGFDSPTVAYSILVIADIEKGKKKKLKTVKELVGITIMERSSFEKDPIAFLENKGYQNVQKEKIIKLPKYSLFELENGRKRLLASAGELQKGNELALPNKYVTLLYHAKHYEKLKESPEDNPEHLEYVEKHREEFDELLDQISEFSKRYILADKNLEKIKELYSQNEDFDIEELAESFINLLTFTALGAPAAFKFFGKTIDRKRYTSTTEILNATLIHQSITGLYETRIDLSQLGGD
Assay: cell_activity; +++; HEK293T; PAM not stated
Outline: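 Editing activity was scored as the fraction of GFP+ cells on day 4 by flow cytometry. BFP-expressing HEK293T cells (250,000) received by nucleofection 200 ng plasmid for the RT-Cas fusion protein and 200 ng template RNA plasmid designed to convert BFP to GFP.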

B1: BFP-to-GFP template RNA ; BFP reporter protospacer (ssRNA ; dsDNA)
RNA: GCCGAAGCACUGCACGCCGUGUUUUAGAGCUAGAAAUAGCAAGUUAAAAUAAGGCUAGUCCGUUAUCAACUUGAAAAAGUGGCACCGAGUCGGUGCACCCUGACGUACGGCGUGCAGUGCUU
DNA 1: GCCGAAGCACTGCACGCCGT
DNA 2: ACGGCGTGCAGTGCTTCGGC
In the case of B1, the activity is reported as ≥ 100 % of reference.
